The text below walks through data of article PMC10344899, “ZmmiR169q/ZmNF-YA8 is a module that homeostatically regulates primary root growth and salt tolerance in maize”.

The data set concerns the target T1, ZmNF-YA8 (Zea mays, UniProt B6SPD7 2-301).
T1 sequence: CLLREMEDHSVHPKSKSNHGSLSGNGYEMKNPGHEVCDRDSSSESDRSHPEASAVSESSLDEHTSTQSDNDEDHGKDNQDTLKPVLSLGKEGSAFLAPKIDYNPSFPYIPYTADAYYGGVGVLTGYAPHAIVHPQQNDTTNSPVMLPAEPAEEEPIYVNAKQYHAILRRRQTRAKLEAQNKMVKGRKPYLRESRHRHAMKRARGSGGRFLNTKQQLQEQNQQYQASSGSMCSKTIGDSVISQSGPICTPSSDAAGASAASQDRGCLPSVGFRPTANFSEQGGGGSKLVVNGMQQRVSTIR
As to the kind of experiment: EMSA; shifted band reduced by 20x unlabelled probe and eliminated at 40x; 20 min incubation; nondenaturing 4% polyacrylamide gel, 0.5x TBE; LightShift Chemiluminescent EMSA kit; binding buffer, salt, pH and temperature not stated. Conditions: protein: recombinant; tags: His (pET28a); blunt.

B1: ZmERF1B promoter P1 CCAAT-box EMSA probe (dsDNA)
DNA 1: GGCGCGCATTCGCCTCGCCTCCAATTCCCATCCATCACTAACTTG
DNA 2: CAAGTTAGTGATGGATGGGAATTGGAGGCGAGGCGAATGCGCGCC
Consider B1, for which the binding result was “binds”.
